* marks the point of attachment. Biotin = O=C1N[C@H]2[C@H](CS[C@H]2CCCCC(=O)*)N1
Legend:
[1] = target: T1, unphosphorylated human MST2-FL (residues 1-484) (human) (UniProt Q13188)
T1 sequence: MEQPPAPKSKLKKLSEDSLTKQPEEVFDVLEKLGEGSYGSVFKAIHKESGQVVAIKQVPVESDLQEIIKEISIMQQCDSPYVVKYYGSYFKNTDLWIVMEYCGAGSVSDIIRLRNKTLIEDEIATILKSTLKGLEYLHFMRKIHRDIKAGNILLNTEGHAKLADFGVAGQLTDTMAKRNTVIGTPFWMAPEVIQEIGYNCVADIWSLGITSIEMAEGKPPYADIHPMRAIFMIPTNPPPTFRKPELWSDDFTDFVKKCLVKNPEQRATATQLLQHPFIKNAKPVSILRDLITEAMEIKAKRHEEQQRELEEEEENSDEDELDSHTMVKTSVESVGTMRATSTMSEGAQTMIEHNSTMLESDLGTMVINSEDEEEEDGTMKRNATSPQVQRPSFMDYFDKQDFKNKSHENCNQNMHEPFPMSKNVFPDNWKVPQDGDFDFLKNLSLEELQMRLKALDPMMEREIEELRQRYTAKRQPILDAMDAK

[2] = target: T2, unphosphorylated human MST2-K (kinase domain, residues 1-314) (human) (UniProt Q13188)
T2 sequence: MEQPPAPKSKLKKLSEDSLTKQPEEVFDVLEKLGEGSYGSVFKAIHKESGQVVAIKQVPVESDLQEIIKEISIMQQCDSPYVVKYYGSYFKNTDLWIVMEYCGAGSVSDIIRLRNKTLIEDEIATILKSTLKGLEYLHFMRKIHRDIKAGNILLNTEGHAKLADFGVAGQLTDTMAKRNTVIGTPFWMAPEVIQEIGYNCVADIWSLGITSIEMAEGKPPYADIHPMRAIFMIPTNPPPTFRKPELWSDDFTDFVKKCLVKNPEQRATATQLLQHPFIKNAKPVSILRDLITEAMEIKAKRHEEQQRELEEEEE

[3] = target: T3, unphosphorylated human MST2-KL (kinase-linker, residues 1-433) (human) (UniProt Q13188)
T3 sequence: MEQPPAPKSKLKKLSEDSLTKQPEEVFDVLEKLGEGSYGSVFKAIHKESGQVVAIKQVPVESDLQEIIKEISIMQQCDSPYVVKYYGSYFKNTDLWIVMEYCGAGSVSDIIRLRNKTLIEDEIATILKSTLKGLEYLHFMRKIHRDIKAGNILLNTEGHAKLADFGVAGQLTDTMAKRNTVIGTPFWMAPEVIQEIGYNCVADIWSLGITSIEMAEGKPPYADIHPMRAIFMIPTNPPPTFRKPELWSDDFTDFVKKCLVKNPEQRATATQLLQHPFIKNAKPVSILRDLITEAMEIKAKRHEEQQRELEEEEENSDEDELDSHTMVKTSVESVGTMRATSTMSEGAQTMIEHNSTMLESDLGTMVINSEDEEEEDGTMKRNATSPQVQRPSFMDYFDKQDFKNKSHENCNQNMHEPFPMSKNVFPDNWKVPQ

B1: biotinylated peptide substrate Biotin-…-NH2 (peptide)
peptide: Biotin-GGGENWYNTLKRKK-NH2
SMILES: CC(C)C[C@H](NC(=O)[C@@H](NC(=O)[C@H](CC(N)=O)NC(=O)[C@H](Cc1ccc(O)cc1)NC(=O)[C@H](Cc1c[nH]c2ccccc12)NC(=O)[C@H](CC(N)=O)NC(=O)[C@H](CCC(=O)O)NC(=O)CNC(=O)CNC(=O)CNC(=O)CCCC[C@@H]1SC[C@@H]2NC(=O)N[C@@H]21)[C@@H](C)O)C(=O)N[C@@H](CCCCN)C(=O)N[C@@H](CCCNC(=N)N)C(=O)N[C@@H](CCCCN)C(=O)N[C@@H](CCCCN)C(N)=O
Km^app (peptide), radiometric kinase assay, steady state, 30°C [1]: 139 µM
Km^app (peptide), radiometric kinase assay, steady state, 30°C [2]: 625 µM
Km^app (peptide), radiometric kinase assay, steady state, 30°C [3]: 804 µM
